Laboratory results reported in IntAct's records for PubMed 11226162.

B1: E3 ubiquitin-protein ligase COP1 (Arabidopsis thaliana (Mouse-ear cress)), P43254 (parent)
chain: MEEISTDPVVPAVKPDPRTSSVGEGANRHENDDGGSGGSEIGAPDLDKDLLCPICMQIIKDAFLTACGHSFCYMCIITHLRNKSDCPCCSQHLTNNQLYPNFLLDKLLKKTSARHVSKTASPLDQFREALQRGCDVSIKEVDNLLTLLAERKRKMEQEEAERNMQILLDFLHCLRKQKVDELNEVQTDLQYIKEDINAVERHRIDLYRARDRYSVKLRMLGDDPSTRNAWPHEKNQIGFNSNSLSIRGGNFVGNYQNKKVEGKAQGSSHGLPKKDALSGSDSQSLNQSTVSMARKKRIHAQFNDLQECYLQKRRQLADQPNSKQENDKSVVRREGYSNGLADFQSVLTTFTRYSRLRVIAEIRHGDIFHSANIVSSIEFDRDDELFATAGVSRCIKVFDFSSVVNEPADMQCPIVEMSTRSKLSCLSWNKHEKNHIASSDYEGIVTVWDVTTRQSLMEYEEHEKRAWSVDFSRTEPSMLVSGSDDCKVKVWCTRQEASVINIDMKANICCVKYNPGSSNYIAVGSADHHIHYYDLRNISQPLHVFSGHKKAVSYVKFLSNNELASASTDSTLRLWDVKDNLPVRTFRGHTNEKNFVGLTVNSEYLACGSETNEVYVYHKEITRPVTSHRFGSPDMDDAEEEAGSYFISAVCWKSDSPTMLTANSQGTIKVLVLAA
partner: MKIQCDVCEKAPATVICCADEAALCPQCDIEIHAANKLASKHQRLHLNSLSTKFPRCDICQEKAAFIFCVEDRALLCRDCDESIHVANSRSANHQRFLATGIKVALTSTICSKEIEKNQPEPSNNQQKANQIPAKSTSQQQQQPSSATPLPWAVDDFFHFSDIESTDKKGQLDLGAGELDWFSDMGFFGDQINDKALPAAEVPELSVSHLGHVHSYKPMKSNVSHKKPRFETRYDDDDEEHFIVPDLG
B2: B-box zinc finger protein 25 (Arabidopsis thaliana (Mouse-ear cress)), Q9SID1 (parent)
chain: MKIQCDVCEKAPATLICCADEAALCAKCDVEVHAANKLASKHQRLFLDSLSTKFPPCDICLEKAAFIFCVEDRALLCRDCDEATHAPNTRSANHQRFLATGIRVALSSTSCNQEVEKNHFDPSNQQSLSKPPTQQPAAPSPLWATDEFFSYSDLDCSNKEKEQLDLGELDWLAEMGLFGDQPDQEALPVAEVPELSFSHLAHAHSYNRPMKSNVPNKKQRLEYRYDDEEEHFLVPDLG
partner: B1 chain
B3: Transcription factor HY5 (Arabidopsis thaliana (Mouse-ear cress)), O24646 (parent)
chain: MQEQATSSLAASSLPSSSERSSSSAPHLEIKEGIESDEEIRRVPEFGGEAVGKETSGRESGSATGQERTQATVGESQRKRGRTPAEKENKRLKRLLRNRVSAQQARERKKAYLSELENRVKDLENKNSELEERLSTLQNENQMLRHILKNTTGNKRGGGGGSNADASL
partner: B1 chain
B4: E3 ubiquitin-protein ligase COP1 (Arabidopsis thaliana (Mouse-ear cress)), P43254 (parent)
chain: B1 chain
partner: B3 chain
B5: E3 ubiquitin-protein ligase COP1 (Arabidopsis thaliana (Mouse-ear cress)), P43254 (parent)
chain: B1 chain
partner: B2 chain

Variants of: B1
Details: with BBX24, Q96288-1

Variant | effect of a mutation on the interaction
R465E | decreasing interaction
K422E | decreasing interaction
W467A | decreasing interaction
E592R | increasing interaction

More lines, now with the values ahead:

effect of a mutation on the interaction | Variant
decreasing interaction | K550E
decreasing interaction | G524E

Variants of: B2
Details: with cop1_arath COP1, P43254

effect of a mutation on the interaction | Variant
decreasing interaction | MKIQCDVCEKAPATLICCADEAALCAKCDVEVHAANKLASKHQRLFLDSLSTKFPPCDICLEKAAFIFCVEDRALLCRDCDEATHAPNTRSANHQRFLATGIRVALSSTSCNQEVEKNHFDPSNQQSLSKPPTQQPAAPSPLWATDEFFSYSDLDCSNKEKEQLDLGELDWLAEMGLFGDQPDQEALPVAEVPELSFSHLAHAHSYNRPMKSNVPNKKQRLEYRYDDEEEHFLAADLG [V234A;P235A]

Variants of: B3
Details: with cop1_arath COP1, P43254

effect of a mutation on the interaction | Variant
decreasing interaction | MQEQATSSLAASSLPSSSERSSSSAPHLEIKEGIESDEEIRRAAEFGGEAVGKETSGRESGSATGQERTQATVGESQRKRGRTPAEKENKRLKRLLRNRVSAQQARERKKAYLSELENRVKDLENKNSELEERLSTLQNENQMLRHILKNTTGNKRGGGGGSNADASL [V43A;P44A]

Variants of: B4
Details: with hy5_arath HY5, O24646

effect of a mutation on the interaction | Variant
decreasing interaction | G524E
decreasing interaction | K550E
increasing interaction | K422E
decreasing interaction | W467A
increasing interaction | E592R

Variants of: B5
Details: with bbx25_arath BBX25, Q9SID1

Variant | effect of a mutation on the interaction
W467A | decreasing interaction
G524E | decreasing interaction

Other lines, results leading:

effect of a mutation on the interaction | Variant
decreasing interaction | R465E
increasing interaction | E592R
decreasing interaction | K422E
decreasing interaction | K550E
